Results published in the supplement of paper PMC11246515.
± gives the standard deviation of the averaged measurements.

Test: total protein half-life in vivo (active degradation + dilution); higher = more stable protein
[1] = E. coli NCM3722 delta-clpP delta-lon delta-hslV, growth: N-lim chemostat, doubling time 6 h
[2] = E. coli NCM3722 delta-hslV, growth: N-lim chemostat, doubling time 6 h
[3] = E. coli NCM3722 delta-lon, growth: N-lim chemostat, doubling time 6 h
[4] = E. coli NCM3722 delta-smpB, growth: N-lim chemostat, doubling time 6 h
[5] = wild type E. coli NCM3722, growth: C-lim chemostat, doubling time 3 h
[6] = wild type E. coli NCM3722, growth: C-lim chemostat, doubling time 6 h
[7] = wild type E. coli NCM3722, growth: C-lim chemostat, doubling time 12 h
[8] = wild type E. coli NCM3722, growth: N-lim chemostat, doubling time 6 h
[9] = wild type E. coli NCM3722, growth: P-lim chemostat, doubling time 6 h
[10] = wild type E. coli NCM3722, growth: P-lim chemostat, doubling time 12 h
[11] = E. coli NCM3722 delta-clpP, growth: N-lim chemostat, doubling time 6 h
[12] = wild type E. coli NCM3722, growth: N-lim chemostat, doubling time 12 h

| Sequence | total protein half-life in vivo [1] [h] | total protein half-life in vivo [2] [h] | total protein half-life in vivo [3] [h] | total protein half-life in vivo [4] [h] | total protein half-life in vivo [5] [h] | total protein half-life in vivo [6] [h] | total protein half-life in vivo [7] [h] | total protein half-life in vivo [8] [h] | total protein half-life in vivo [9] [h] | total protein half-life in vivo [10] [h] | total protein half-life in vivo [11] [h] | total protein half-life in vivo [12] [h] |
| --- | --- | --- | --- | --- | --- | --- | --- | --- | --- | --- | --- | --- |
| MSEEKLGQHYLAALNEAFPGVVLDHAWQTKDQLTVTVKVNYLPEVVEFLYYKQGGWLSVLFGNDERKLNGHYAVYYVLSMEKGTKCWITVRVEVDANKPEYPSVTPRVPAAVWGEREVRDMYGLIPVGLPDERRLVLPDDWPDELYPLRKDSMDYRQRPAPTTDAETYEFINELGDKKNNVVPIGPLHVTSDEPGHFRLFVDGENIIDADYRLFYVHRGMEKLAETRMGYNEVTFLSDRVCGICGFAHSTAYTTSVENAMGIQVPERAQMIRAILLEVERLHSHLLNLGLACHFTGFDSGFMQFFRVRETSMKMAEILTGARKTYGLNLIGGIRRDLLKDDMIQTRQLAQQMRREVQELVDVLLSTPNMEQRTVGIGRLDPEIARDFSNVGPMVRASGHARDTRADHPFVGYGLLPMEVHSEQGCDVISRLKVRINEVYTALNMIDYGLDNLPGGPLMVEGFTYIPHRFALGFAEAPRGDDIHWSMTGDNQKLYRWRCRAATYANWPTLRYMLRGNTVSDAPLIIGSLDPCYSCTDRMTVVDVRKKKSKVVPYKELERYSIERKNSPLK | 4.79 | 2.89 | 3.68 | 2.74 ± 0.029 | 2.46 | 5.18 | 11.2 ± 0.78 | 3.86 ± 1.7 | 5.02 | 8.26 ± 0.97 | – | – |
| MSEKSIVQEARDIQLAMELITLGARLQMLESETQLSRGRLIKLYKELRGSPPPKGMLPFSTDWFMTWEQNVHASMFCNAWQFLLKTGLCNGVDAVIKAYRLYLEQCPQAEEGPLLALTRAWTLVRFVESGLLQLSSCNCCGGNFITHAHQPVGSFACSLCQPPSRAVKRRKLSQNPADIIPQLLDEQRVQAV [P0ABY7] | > 8 | – | – | – | 0.252 | 0.52 | – | – | – | – | 4.44 | – |
| MSEKVVFSQLSRKFIDENDATPAEAQQVVYYSLAIGHHLGVIDCLEAALTCPWDEYLAWIATLEAGSEARRKMEGVPKYGEIVIDINHVPMLANAFDKARAAQTSQQQEWSTMLLSMLHDIHQENAIYLMVRRLRD [P0AEV7] | 3.73 | – | 2.37 ± 0.25 | 1.7 | 2.34 | 3.73 | 6.99 | 2.24 ± 0.23 | 3.21 | 6.49 ± 0.1 | 2.63 | 2.34 |
| MSEKYIVTWDMLQIHARKLASRLMPSEQWKGIIAVSRGGLVPGALLARELGIRHVDTVCISSYDHDNQRELKVLKRAEGDGEGFIVIDDLVDTGGTAVAIREMYPKAHFVTIFAKPAGRPLVDDYVVDIPQDTWIEQPWDMGVVFVPPISGR [P0A9M5] | 4.63 ± 0.2 | 4.153 ± 0.02 | 4.37 ± 0.52 | 4.28 ± 0.093 | 3 ± 0.046 | 5.55 ± 0.23 | 9.92 ± 0.83 | 4.16 ± 0.19 | 6.07 ± 0.34 | 13.99 ± 0.054 | 3.87 ± 0.29 | 6.73 ± 0.53 |
| MSELNEKLATAWEGFTKGDWQNEVNVRDFIQKNYTPYEGDESFLAGATEATTTLWDKVMEGVKLENRTHAPVDFDTAVASTITSHDAGYINKQLEKIVGLQTEAPLKRALIPFGGIKMIEGSCKAYNRELDPMIKKIFTEYRKTHNQGVFDVYTPDILRCRKSGVLTGLPDAYGRGRIIGDYRRVALYGIDYLMKDKLAQFTSLQADLENGVNLEQTIRLREEIAEQHRALGQMKEMAAKYGYDISGPATNAQEAIQWTYFGYLAAVKSQNGAAMSFGRTSTFLDVYIERDLKAGKITEQEAQEMVDHLVMKLRMVRFLRTPEYDELFSGDPIWATESIGGMGLDGRTLVTKNSFRFLNTLYTMGPSPEPNMTILWSEKLPLNFKKFAAKVSIDTSSLQYENDDLMRPDFNNDDYAIACCVSPMIVGKQMQFFGARANLAKTMLYAINGGVDEKLKMQVGPKSEPIKGDVLNYDEVMERMDHFMDWLAKQYITALNIIHYMHDKYSYEASLMALHDRDVIRTMACGIAGLSVAADSLSAIKYAKVKPIRDEDGLAIDFEIEGEYPQFGNNDPRVDDLAVDLVERFMKKIQKLHTYRDAIPTQSVLTITSNVVYGKKTGNTPDGRRAGAPFGPGANPMHGRDQKGAVASLTSVAKLPFAYAKDGISYTFSIVPNALGKDDEVRKTNLAGLMDGYFHHEASIEGGQHLNVNVMNREMLLDAMENPEKYPQLTIRVSGYAVRFNSLTKEQQQDVITRTFTQSM | 4.8 ± 0.094 | 2.98 ± 0.12 | 3.71 ± 0.17 | 2.58 ± 0.067 | 2 ± 0.078 | 3.04 ± 0.058 | 4.18 ± 0.3 | 3.04 ± 0.21 | 3.36 ± 0.26 | 6.13 ± 0.27 | 3.3 ± 0.053 | 4.452 ± 0.017 |
| MSELSQLSPQPLWDIFAKICSIPHPSYHEEQLAEYIVGWAKEKGFHVERDQVGNILIRKPATAGMENRKPVVLQAHLDMVPQKNNDTVHDFTKDPIQPYIDGEWVKARGTTLGADNGIGMASALAVLADENVVHGPLEVLLTMTEEAGMDGAFGLQGNWLQADILINTDSEEEGEIYMGCAGGIDFTSNLHLDREAVPAGFETFKLTLKGLKGGHSGGEIHVGLGNANKLLVRFLAGHAEELDLRLIDFNGGTLRNAIPREAFATIAVAADKVDVLKSLVNTYQEILKNELAEKEKNLALLLDSVANDKAALIAKSRDTFIRLLNATPNGVIRNSDVAKGVVETSLNVGVVTMTDNNVEIHCLIRSLIDSGKDYVVSMLDSLGKLAGAKTEAKGAYPGWQPDANSPVMHLVRETYQRLFNKTPNIQIIHAGLECGLFKKPYPEMDMVSIGPTITGPHSPDEQVHIESVGHYWTLLTELLKEIPAK | 4.741 ± 0.0055 | 5.28 ± 0.26 | 4.816 ± 0.018 | 4.53 ± 0.12 | 3.09 ± 0.14 | 5.61 ± 0.4 | 11.1 ± 0.36 | 4.81 ± 0.18 | 5.88 ± 0.37 | 13.7 ± 3.1 | 4.94 ± 0.75 | 8.14 ± 0.0087 |
| MSELTDLLLQGPRSAPELRQRLAISQATFSRLVAREDRVIRFGKARATRYALLRPYRGIERIPVWRVDDTGKAHKFADIRLCWPQGSCLVTGADGDEQWFDGLPWYLTDLRPQGFLGRAWGRKLAAQLNLTDDIRLWQEEDVLYALTVFNGEYTGGWLVGEGNYQRWITAQHPAEIPLDQKLTHYEQLASDALAGEIVGSSAGGEQPKFTYYAQTPSGNKHVLVKFTVPQQTAVSQRWGDLLIAESIAAQILRDGGIHAIESTVLVTSNRQVFLEAERFDCKGNDGRLPIVSLEAVQSEFISSPGSWPQAMRRLCEQQLVTHQSVAQTEVIWAFGRLIANSDMHAGNLSFYLSEPPFALTPVYDMLPMVYAPNSAGMLRDAAIEVKFDLNVSKSAWLTAIPLAQQFWQTVARDPRISEAFRHIAQEMPEKIRQIEEKVARMGG | – | – | 5.71 ± 0.22 | 4.46 ± 0.29 | 2.95 ± 0.45 | 5.9 ± 1.3 | 10.9 ± 0.43 | 4.54 ± 0.54 | 2.5 | 6.85 ± 3.4 | 5.39 ± 0.31 | 9.16 ± 2.6 |
